# Starred links: 1 amine or outer side, 2 acyl side, 3 side chain; linkers in the order of their positions; H or OH if unused. Non-standard residues stand in square brackets, D forms with d. Groups on a side chain read outwards from the residue. No end group written: not given here. *: point of attachment. C20 diacid = O=C(O)CCCCCCCCCCCCCCCCCCC(=O)*; C18 diacid = O=C(O)CCCCCCCCCCCCCCCCC(=O)*; γGlu = O=C(O)[C@H](CCC(=O)[*:2])N[*:1]; αMeF = C[C@](N)(Cc1ccccc1)C(=O)O; AEEA = NCCOCCOCC(=O)O; Aib = CC(C)(N)C(=O)O
# B1: Peptide 491 (peptide)
# peptide: H[Aib]QGTFTSDVSK[αMeF]LDTK([AEEA-AEEA-γGlu-C18 diacid])RARDFVRWLL[Aib]TE-OH
# modifications: N-terminus assumed
# SMILES: CC(C)C[C@H](NC(=O)[C@H](Cc1c[nH]c2ccccc12)NC(=O)[C@H](CCCNC(=N)N)NC(=O)[C@@H](NC(=O)[C@H](Cc1ccccc1)NC(=O)[C@H](CC(=O)O)NC(=O)[C@H](CCCNC(=N)N)NC(=O)[C@H](C)NC(=O)[C@H](CCCNC(=N)N)NC(=O)[C@H](CCCCNC(=O)COCCOCCNC(=O)COCCOCCNC(=O)CC[C@H](NC(=O)CCCCCCCCCCCCCCCCC(=O)O)C(=O)O)NC(=O)[C@@H](NC(=O)[C@H](CC(=O)O)NC(=O)[C@H](CC(C)C)NC(=O)[C@](C)(Cc1ccccc1)NC(=O)[C@H](CCCCN)NC(=O)[C@H](CO)NC(=O)[C@@H](NC(=O)[C@H](CC(=O)O)NC(=O)[C@H](CO)NC(=O)[C@@H](NC(=O)[C@H](Cc1ccccc1)NC(=O)[C@@H](NC(=O)CNC(=O)[C@H](CCC(N)=O)NC(=O)C(C)(C)NC(=O)[C@@H](N)Cc1c[nH]cn1)[C@@H](C)O)[C@@H](C)O)C(C)C)[C@@H](C)O)C(C)C)C(=O)N[C@@H](CC(C)C)C(=O)NC(C)(C)C(=O)N[C@H](C(=O)N[C@@H](CCC(=O)O)C(=O)O)[C@@H](C)O
# B2: Peptide 496 (peptide)
# peptide: H[Aib]QGTFTSDVSK[αMeF]LDTK([AEEA-AEEA-γGlu-C20 diacid])RAQDFVRWLLR[Aib]K-NH2
# modifications: N-terminus assumed
# SMILES: CC(C)C[C@H](NC(=O)[C@H](Cc1c[nH]c2ccccc12)NC(=O)[C@H](CCCNC(=N)N)NC(=O)[C@@H](NC(=O)[C@H](Cc1ccccc1)NC(=O)[C@H](CC(=O)O)NC(=O)[C@H](CCC(N)=O)NC(=O)[C@H](C)NC(=O)[C@H](CCCNC(=N)N)NC(=O)[C@H](CCCCNC(=O)COCCOCCNC(=O)COCCOCCNC(=O)CC[C@H](NC(=O)CCCCCCCCCCCCCCCCCCC(=O)O)C(=O)O)NC(=O)[C@@H](NC(=O)[C@H](CC(=O)O)NC(=O)[C@H](CC(C)C)NC(=O)[C@](C)(Cc1ccccc1)NC(=O)[C@H](CCCCN)NC(=O)[C@H](CO)NC(=O)[C@@H](NC(=O)[C@H](CC(=O)O)NC(=O)[C@H](CO)NC(=O)[C@@H](NC(=O)[C@H](Cc1ccccc1)NC(=O)[C@@H](NC(=O)CNC(=O)[C@H](CCC(N)=O)NC(=O)C(C)(C)NC(=O)[C@@H](N)Cc1c[nH]cn1)[C@@H](C)O)[C@@H](C)O)C(C)C)[C@@H](C)O)C(C)C)C(=O)N[C@@H](CC(C)C)C(=O)N[C@@H](CCCNC(=N)N)C(=O)NC(C)(C)C(=O)N[C@@H](CCCCN)C(N)=O
# B3: Peptide 493 (peptide)
# peptide: H[Aib]QGTFTSDVSK[αMeF]LDTK([AEEA-AEEA-γGlu-C18 diacid])RAQDFVRWLLR[Aib]K-OH
# modifications: N-terminus assumed
# SMILES: CC(C)C[C@H](NC(=O)[C@H](Cc1c[nH]c2ccccc12)NC(=O)[C@H](CCCNC(=N)N)NC(=O)[C@@H](NC(=O)[C@H](Cc1ccccc1)NC(=O)[C@H](CC(=O)O)NC(=O)[C@H](CCC(N)=O)NC(=O)[C@H](C)NC(=O)[C@H](CCCNC(=N)N)NC(=O)[C@H](CCCCNC(=O)COCCOCCNC(=O)COCCOCCNC(=O)CC[C@H](NC(=O)CCCCCCCCCCCCCCCCC(=O)O)C(=O)O)NC(=O)[C@@H](NC(=O)[C@H](CC(=O)O)NC(=O)[C@H](CC(C)C)NC(=O)[C@](C)(Cc1ccccc1)NC(=O)[C@H](CCCCN)NC(=O)[C@H](CO)NC(=O)[C@@H](NC(=O)[C@H](CC(=O)O)NC(=O)[C@H](CO)NC(=O)[C@@H](NC(=O)[C@H](Cc1ccccc1)NC(=O)[C@@H](NC(=O)CNC(=O)[C@H](CCC(N)=O)NC(=O)C(C)(C)NC(=O)[C@@H](N)Cc1c[nH]cn1)[C@@H](C)O)[C@@H](C)O)C(C)C)[C@@H](C)O)C(C)C)C(=O)N[C@@H](CC(C)C)C(=O)N[C@@H](CCCNC(=N)N)C(=O)NC(C)(C)C(=O)N[C@@H](CCCCN)C(=O)O
# B4: Peptide 498 (peptide)
# peptide: H[Aib]QGTFTSDVSK[αMeF]LDTK([AEEA-AEEA-γGlu-C20 diacid])RAQDFVRWLLR[Aib]A-OH
# modifications: N-terminus assumed
# SMILES: CC(C)C[C@H](NC(=O)[C@H](Cc1c[nH]c2ccccc12)NC(=O)[C@H](CCCNC(=N)N)NC(=O)[C@@H](NC(=O)[C@H](Cc1ccccc1)NC(=O)[C@H](CC(=O)O)NC(=O)[C@H](CCC(N)=O)NC(=O)[C@H](C)NC(=O)[C@H](CCCNC(=N)N)NC(=O)[C@H](CCCCNC(=O)COCCOCCNC(=O)COCCOCCNC(=O)CC[C@H](NC(=O)CCCCCCCCCCCCCCCCCCC(=O)O)C(=O)O)NC(=O)[C@@H](NC(=O)[C@H](CC(=O)O)NC(=O)[C@H](CC(C)C)NC(=O)[C@](C)(Cc1ccccc1)NC(=O)[C@H](CCCCN)NC(=O)[C@H](CO)NC(=O)[C@@H](NC(=O)[C@H](CC(=O)O)NC(=O)[C@H](CO)NC(=O)[C@@H](NC(=O)[C@H](Cc1ccccc1)NC(=O)[C@@H](NC(=O)CNC(=O)[C@H](CCC(N)=O)NC(=O)C(C)(C)NC(=O)[C@@H](N)Cc1c[nH]cn1)[C@@H](C)O)[C@@H](C)O)C(C)C)[C@@H](C)O)C(C)C)C(=O)N[C@@H](CC(C)C)C(=O)N[C@@H](CCCNC(=N)N)C(=O)NC(C)(C)C(=O)N[C@@H](C)C(=O)O
# B5: Peptide 497 (peptide)
# peptide: H[Aib]QGTFTSDVSK[αMeF]LDTK([AEEA-AEEA-γGlu-C18 diacid])RAQDFVRWLLR[Aib]A-OH
# modifications: N-terminus assumed
# SMILES: CC(C)C[C@H](NC(=O)[C@H](Cc1c[nH]c2ccccc12)NC(=O)[C@H](CCCNC(=N)N)NC(=O)[C@@H](NC(=O)[C@H](Cc1ccccc1)NC(=O)[C@H](CC(=O)O)NC(=O)[C@H](CCC(N)=O)NC(=O)[C@H](C)NC(=O)[C@H](CCCNC(=N)N)NC(=O)[C@H](CCCCNC(=O)COCCOCCNC(=O)COCCOCCNC(=O)CC[C@H](NC(=O)CCCCCCCCCCCCCCCCC(=O)O)C(=O)O)NC(=O)[C@@H](NC(=O)[C@H](CC(=O)O)NC(=O)[C@H](CC(C)C)NC(=O)[C@](C)(Cc1ccccc1)NC(=O)[C@H](CCCCN)NC(=O)[C@H](CO)NC(=O)[C@@H](NC(=O)[C@H](CC(=O)O)NC(=O)[C@H](CO)NC(=O)[C@@H](NC(=O)[C@H](Cc1ccccc1)NC(=O)[C@@H](NC(=O)CNC(=O)[C@H](CCC(N)=O)NC(=O)C(C)(C)NC(=O)[C@@H](N)Cc1c[nH]cn1)[C@@H](C)O)[C@@H](C)O)C(C)C)[C@@H](C)O)C(C)C)C(=O)N[C@@H](CC(C)C)C(=O)N[C@@H](CCCNC(=N)N)C(=O)NC(C)(C)C(=O)N[C@@H](C)C(=O)O
# B6: Peptide 495 (peptide)
# peptide: H[Aib]QGTFTSDVSK[αMeF]LDTK([AEEA-AEEA-γGlu-C18 diacid])RAQDFVRWLLR[Aib]K-NH2
# modifications: N-terminus assumed
# SMILES: CC(C)C[C@H](NC(=O)[C@H](Cc1c[nH]c2ccccc12)NC(=O)[C@H](CCCNC(=N)N)NC(=O)[C@@H](NC(=O)[C@H](Cc1ccccc1)NC(=O)[C@H](CC(=O)O)NC(=O)[C@H](CCC(N)=O)NC(=O)[C@H](C)NC(=O)[C@H](CCCNC(=N)N)NC(=O)[C@H](CCCCNC(=O)COCCOCCNC(=O)COCCOCCNC(=O)CC[C@H](NC(=O)CCCCCCCCCCCCCCCCC(=O)O)C(=O)O)NC(=O)[C@@H](NC(=O)[C@H](CC(=O)O)NC(=O)[C@H](CC(C)C)NC(=O)[C@](C)(Cc1ccccc1)NC(=O)[C@H](CCCCN)NC(=O)[C@H](CO)NC(=O)[C@@H](NC(=O)[C@H](CC(=O)O)NC(=O)[C@H](CO)NC(=O)[C@@H](NC(=O)[C@H](Cc1ccccc1)NC(=O)[C@@H](NC(=O)CNC(=O)[C@H](CCC(N)=O)NC(=O)C(C)(C)NC(=O)[C@@H](N)Cc1c[nH]cn1)[C@@H](C)O)[C@@H](C)O)C(C)C)[C@@H](C)O)C(C)C)C(=O)N[C@@H](CC(C)C)C(=O)N[C@@H](CCCNC(=N)N)C(=O)NC(C)(C)C(=O)N[C@@H](CCCCN)C(N)=O
# B7: Peptide 494 (peptide)
# peptide: H[Aib]QGTFTSDVSK[αMeF]LDTK([AEEA-AEEA-γGlu-C20 diacid])RAQDFVRWLLR[Aib]K-OH
# B8: Peptide 492 (peptide)
# peptide: H[Aib]QGTFTSDVSK[αMeF]LDTK([AEEA-AEEA-γGlu-C20 diacid])RARDFVRWLL[Aib]TE-OH
# modifications: N-terminus assumed
# SMILES: CC(C)C[C@H](NC(=O)[C@H](Cc1c[nH]c2ccccc12)NC(=O)[C@H](CCCNC(=N)N)NC(=O)[C@@H](NC(=O)[C@H](Cc1ccccc1)NC(=O)[C@H](CC(=O)O)NC(=O)[C@H](CCCNC(=N)N)NC(=O)[C@H](C)NC(=O)[C@H](CCCNC(=N)N)NC(=O)[C@H](CCCCNC(=O)COCCOCCNC(=O)COCCOCCNC(=O)CC[C@H](NC(=O)CCCCCCCCCCCCCCCCCCC(=O)O)C(=O)O)NC(=O)[C@@H](NC(=O)[C@H](CC(=O)O)NC(=O)[C@H](CC(C)C)NC(=O)[C@](C)(Cc1ccccc1)NC(=O)[C@H](CCCCN)NC(=O)[C@H](CO)NC(=O)[C@@H](NC(=O)[C@H](CC(=O)O)NC(=O)[C@H](CO)NC(=O)[C@@H](NC(=O)[C@H](Cc1ccccc1)NC(=O)[C@@H](NC(=O)CNC(=O)[C@H](CCC(N)=O)NC(=O)C(C)(C)NC(=O)[C@@H](N)Cc1c[nH]cn1)[C@@H](C)O)[C@@H](C)O)C(C)C)[C@@H](C)O)C(C)C)C(=O)N[C@@H](CC(C)C)C(=O)NC(C)(C)C(=O)N[C@H](C(=O)N[C@@H](CCC(=O)O)C(=O)O)[C@@H](C)O
# Target: human glucagon receptor (human, UniProt P47871)
# Assay: cell-based or functional assay
row,Binder,cAMP production EC50
1,B1,0.232 nM
2,B2,0.482 nM
3,B3,0.166 nM
4,B4,0.17 nM
5,B5,0.118 nM
6,B6,0.38 nM
7,B7,0.212 nM
8,B8,0.374 nM

# Target: human GLP-1 receptor (human, UniProt P43220)
# Assay: cell-based or functional assay
row,Binder,cAMP production EC50
1,B1,0.0736 nM
2,B2,0.0649 nM
3,B3,0.0234 nM
4,B4,0.156 nM
5,B5,0.0374 nM
6,B6,0.0232 nM
7,B7,0.0987 nM
8,B8,0.212 nM
